Test system: MCF-7 cells

COc1cc(N=Nc2ccc(C)cc2[N+](=O)[O-])c(C)cc1N=Nc1ccc(N(C)CCCC(=O)NCCCC[C@H](NC(=O)CNC(=O)[C@H](CC(C)C)NC(=O)[C@H](Cc2ccccc2)NC(=O)CNC(=O)c2ccc3c(c2)C(=O)OC32c3ccc(O)cc3Oc3cc(O)ccc32)C(=O)NCC(=O)N[C@@H](CCCNC(=N)N)C(=O)N[C@@H](CCCCN)C(=O)N[C@@H](CCCCN)C(=O)N[C@@H](CCCNC(=N)N)C(=O)N[C@@H](CCCNC(=N)N)C(=O)N[C@@H](CCC(N)=O)C(=O)N[C@@H](CCCNC(=N)N)C(=O)N[C@@H](CCCNC(=N)N)C(=O)N[C@@H](CCCNC(=N)N)C(=O)N2CCC[C@H]2C(=O)N2CCC[C@H]2C(=O)N[C@@H](CCC(N)=O)C(N)=O)cc1 [TFB]
toxicity to MCF-7 cells (cell viability): little toxicity

Reference: patent US20140113322A1, “SUPRAMOLECULAR NANOBEACON IMAGING AGENTS AS PROTEASE SENSORS” (priority 2012, published 2014)
